Values belong to the binder of their own block, whether it stands above or below them.
Target: reconstituted mononucleosomes (histone octamer on Widom '601' DNA)

Kd: 9.13 µM
B1: zz-LAP1B(98-136)-2E His6 (S108E, T124E) (domain or fragment)
chain: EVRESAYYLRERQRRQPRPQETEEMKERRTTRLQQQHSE

Kd: 0.43 µM
B2: zz-LAP1B(98-136)-His6 wild-type (domain or fragment)
chain: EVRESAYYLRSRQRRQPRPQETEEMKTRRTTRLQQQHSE

Reference: paper PMC7773337 (2020)
